Key:
[1] = tested on: antibodies against Bartonella henselae in IFA sero-positive patient sera (IgG); test: IgG ELISA with recombinant 17-kDa protein or Fragment 3 as coating antigen; format: binding, human
Procedure: In the ELISA assay, purified Fragment 3 protein was diluted in coating buffer to a final concentration of 250 ng/ml. Antigen was adhered to 96-well plate by applying 100 μl this solution per well and incubated at 4° C. for 18 hours. Uncoated antigen was removed by washing the plate three times with PBST wash buffer. After washing, post-coating was done with 300 μl blocking reagent General Blocker BB1 in each well for 1 hour at 22° C. Primary polyclonal antibody from 100 μl serum in 1:100 sample dilution buffer each well was allowed to react with coated antigen for 1 hour at 22° C. After five wash steps with PBST wash buffer, each well was incubated with […] peroxidase conjugated goat anti-human IgG (KPL, 1:20,000 from 1 mg/ml stock in sample dilute buffer) for 30 minutes at 22° C. The excess amount of secondary antibody was also removed by five wash steps with PBST wash buffer. The reaction were visualized by adding 100 μl substrate 3,3′5,5′-Tetramethylbenzidine solution and incubated at 22° C. for 15 minutes. The reaction was terminated by adding 100 μl 0.5 M H2SO4 per well before taking OD450nm measurement. Receiver operating characteristic curve (ROC) analysis was calculated with associated 95% confidence interval using a binomial distribution with the MedCalc program.
In this series of studies, a panel containing 12 IFA positive serum samples and 6 IFA negative serum samples was evaluated by ELISA using the respective antigen as the coating antigen. FIG. 15 presents the results of this ELISA analysis. […] Neither antigen bound antibody in sample #3508.
To further characterize the comparative abilities of recombinant Fragment 3 and the full length protein to bind antibodies to Bartonella henselae, a broader panel of 47 serum samples (27 IFA positive serum samples and 20 IFA negative serum samples) was analyzed by ELISA. The raw data was analyzed with ROC curve comparison in statistic software MedCalc.
A panel of 47 human sera was used in an IgG ELISA to evaluate the sensitivity and specificity for Fragment 3 mutants. The raw data was analyzed by interactive dot diagram assay (FIGS. 31 and 32).
Purified protein was diluted in coating buffer to a final concentration 250 ng/ml. Antigen was adhered to 96-well plate by applying 100 μl above prepared solution per well and incubate at 4° C. for 18 hours. We removed uncoated antigen by washing plate three times with PBST wash buffer. After washing, post-coating was done with 300 μl blocking reagent General Blocker BB1 each well for 1 hour at 22° C. Then primary polyclonal antibody from 100 μl serum in 1:100 sample dilution buffer each well was allowed to react with coated antigen for 1 hour at 22° C. After five times washing with PBST wash buffer, we incubated each well with 100 μl peroxidase conjugated goat anti-human IgG (KPL, 1:20,000 from 1 mg/ml stock in sample dilute buffer) for 30 minutes at 22° C. The excess amount of secondary antibody was also removed by five times washing with PBST wash buffer. The reaction were visualized by adding 100 μl substrate 3,3′5,5′-Tetramethylbenzidine Solution and incubated at 22° C. for 15 minutes. In the end, we terminated reaction with 100 μl 0.5 M H2SO4 per well before taking OD450nm measurement. Receiver operating characteristic curve (ROC) analysis was calculated with associated 95% confidence interval using a binomial distribution with MedCalc program.

[2] = tested on: IgM in IFA-positive patient sera; test: IgM Capture ELISA with biotinylated recombinant 17-kDa full-length protein; format: binding, human; parameters: AUC (ROC analysis of the calibrated slopes): unit not given beside the values; details: IFA-positive (n=13) and IFA-negative (n=34) patient samples
Procedure: For the IgM Capture assay, purified recombinant 17-kDa full-length protein (1 mg/ml) was biotinylated using the Sulfo-NHS Biotin kit (Pierce, Rockford Ill.). MaxiSorp 96 well plates (Nunc, Rochester N.Y.) were coated with anti-human IgM (KPL, Gaithersburg, Md.) at a concentration of 1 μg/ml in coating buffer (0.015 M Na2CO3, 0.035 M NaHCO3 [pH 9.6]) and incubated overnight at 4° C. The plates were washed with PBS-Tween 20 and blocked with 1% bovine serum albumin (BSA) at room temperature. IgM positive and negative patient sera were used. The sera were diluted 1:100 in 1% BSA with 0.05% Tween 20, prior to being run in duplicate, and reacted with the plates for 1 hr at room temperature.
Biotinylated recombinant 17-kDa protein was added to the plates at 1 μg/ml in dilution buffer and incubated at room temperature for 1 h with shaking. Streptavidin-HRP (Southern Biotech, Birmingham Ala.) was used to detect the plates followed by development with 3,3′,5,5′-Tetramethylbenzidine (TMB) (Moss, Pasadena, Md.) for 30 minutes. The reaction was stopped with 2M HCl and the absorbance at 450 nm was recorded after a period of 5-30 minutes.
Receiver operating characteristic (ROC) curve analysis was used to evaluate the performance of the IgM Capture method. ROC plots can be used to compare all tests, even when tests have quite different cutoff values. The study of area under the curve (AUC), which evaluates the probabilities of (1-Specificity) and Sensitivity, is an important statistical feature of such curves (i.e., for samples with Sensitivity=Specificity=100%, AUC would be 1.0).

B1: 17-kDa Full Length: recombinant full-length 17-kDa (virB5) protein of Bartonella henselae strain Houston-1, aa 1-148; biotinylated in the IgM assay (protein, listed as Bartonella henselae)
chain: MKKYSLVTLLSLFCISHAKAQTATLTDEYYKKALENTQKLDVAKSQTAESIYESATQTANKIKDINNQLANLKADTKTKPEQLQALQIELTLLQAQLQADTLKIQSLAMIQAKDTKTKEELREEQTQKKHEDLQKQLKEKLEKSDVQL
modifications: biotinylated in IgM assay
notes: recombinant full-length 17-kDa (virB5) protein of Bartonella henselae strain Houston-1, aa 1-148; biotinylated in the IgM assay
area under ROC curve (AUC) ([1]; IgG ELISA, panel of 47 serum samples (27 IFA positive, 20 IFA negative), MedCalc ROC): 0.853
reaction with IFA negative serum samples ([1]; panel of 12 IFA positive and 6 IFA negative serum samples): Neither antigen reacted with any of the IFA negative serum samples
AUC (ROC analysis of the calibrated slopes) [2]: 0.998
sensitivity [2]: 100%
specificity [2]: 97.1%

— patent US8283439B2, “Recombinant fragments and synthetic peptides of 17-kDa polypeptide useful in detecting Bartonella henselae” (Medical Diagnostic Laboratories L.L.C., priority 2008, dated 2012)
